Here are results for one molecule from patent US9333240B2, “Compounds for improving nutritional status, cognition and survival” (YISSUM RESEARCH DEVELOPMENT COMPANY OF THE HEBREW …, priority 2005, dated 2016).

In assay [1] the test system is mice. Description: Mortality in TAA model of hepatic encephalopathy. The format is in vivo. The conditions noted are these: mice ad libitum or DR to 40%, with or without leptin. The method, then:
Mice were maintained on Ad Librium or DR to 40% conditions. TAA was administered with or without leptin. Treated mortalilty rate was recorded everyday.

In assay [2] the test system is mice. Description: Morris Water Maze in diet-restricted mice. The conditions noted are these: leptin 1 mg/kg daily; data not shown. The format is in vivo. The method, then: The effects of leptin administration (restoration) on neural function in diet-restricted mice was investigated. Mice were assigned at random to 4 groups. The groups were kept under ad libitum or DR to 40% for 10 days and injected daily with either 1 mg/kg leptin or saline for 5 days during the second week. […] Cognitive performance improvement was also observed in the Morris Water Maze (data not shown). Then the effects on the concentrations of NE and dopamine in the hippocampus were evaluated. […] To elucidate the cellular mechanisms involved in leptin effects, proteins associated with apoptosis were determined by immunoblotting. Leptin induced up-regulation of bcl-2 while reducing Bax levels. […] The anti-apoptotic effect of leptin was further confirmed by detection of activated caspase-3 expression as ?of apoptotic cell death. Activated caspase-3 could not be detected in the hippocampi of control animals.

Assay [3] relates to mice. Description: Neurological score in TAA model of hepatic encephalopathy. The format is in vivo. The conditions noted are these: TAA treated mice, Leptin daily for 5 days. How it is done: Mice were treated with TAA, then 1 mk/kg Leptin was administered daily for 5 days and neurological score was evaluated
Assay [4] relates to norepinephrine and dopamine in the hippocampus. Description: Hippocampal catecholamine measurements (HPLC-ECD). The format is in vivo, mice. The conditions noted are these: 1 mg/kg leptin daily. The method, then:
Control mice received food ad-libitum. Diet-restricted mice received a diet of 57 kCal/week/mouse (2.16 g/day/mouse) as 60% of the requirement, or 38 kCal/week/mouse (1.44 g/day/mouse) for 40%/DR. DR was carried out for 10 days. Behavioral test was performed using the eight-arm spatial maze during the second week of experiment. During the behavioral tests, half of the animals in each group were injected intraperitoneally (i.p) with AICAR (1-2 mM equal to 258-516 mg/kg) or leptin (1 mg/kg) and the other half with saline. Mice were sacrificed by decapitation after the behavioral tests and the hippocampi were frozen at -70° C. Catecholamines were measured as described previously ([…] et al (1996), Brain Res. 732, 133-144. The assays for dopamine and NE were performed by HPLC separation and detection using HPLC-ECD. Values are presented as a concentration (ng/mg tissue).

The next assay deals with activated caspase-3. Description: Activated caspase-3 immunohistochemistry in hippocampal sections. The conditions noted are these: 40% DR, leptin 1 mg/kg. The format is in vivo, mice. The method, then: Mice were perfused intracardially with 4% paraformaldehyde in PBS. Their brains were removed, fixed further in the same solution. […] sections, cut on the same day, were de-waxed and hydrated through graded ethanols, cooked in 25 mM citrate buffer pH 6.0 in a pressure cooker at […] for 3 min (decloaking chamber, Biocare Medical), transferred into boiling deinoized water and left to cool down for 20 min. After 5 min treatment in 3% H2O2, slides were incubated with rabbit polyclonal activated caspase-3 antibody diluted 1:100 in CAS-Block (Zymed) for 3 h at room temperature, washed three times with Optimax (Biogenex), incubated for 30 min with anti rabbit Envision_(DAKO) and developed with DAB for 15 min.
The effects of leptin administration (restoration) on neural function in diet-restricted mice was investigated. Mice were assigned at random to 4 groups. The groups were kept under ad libitum or DR to 40% for 10 days and injected daily with either 1 mg/kg leptin or saline for 5 days during the second week. […] Then the effects on the concentrations of NE and dopamine in the hippocampus were evaluated. […] To elucidate the cellular mechanisms involved in leptin effects, proteins associated with apoptosis were determined by immunoblotting. […] Activated caspase-3 could not be detected in the hippocampi of control animals.

Assay [5] relates to Cultured cardiomyocytes. Description: Apoptosis of glucose-deprived cardiomyocytes by FACS. The format is cell-based. The conditions noted are these: glucose deprived condition for 1, 2, 6 h, 1 ug/ml Leptin. The method, then:
In another experiment cultured cardiomyocytes exposed to glucose deprived condition for 1, 2, 6 h were treated with 1 ug/ml Leptin. Apoptotic cell death was detected by FACS analysis.
(In general: A flow cytometer gives signals particle by particle.)

Assay [6] deals with Cultured cardiomyocytes. Put plainly: Cardiomyocyte viability after glucose deprivation (WST). The format is cell-based. The conditions noted are these: glucose deprivation for 1, 3, 6 h. The method, then:
Cultured cardiomyocytes were exposed to glucose deprivation for 1, 3, 6 h and were treated with Leptin as described above. Cell viability was analyzed by WST.

A further assay relates to AMPK. Description: Hippocampal AMPK phosphorylation by immunoblotting. The conditions noted are these: 40% diet restricted mice, 1 mg/kg leptin for 72 h. The format is in vivo. How it is done: Total hippocampal Protein was extracted using TriFast reagent. Aliquots of the clarified lysates containing […] were denatured in Laemmli sample buffer (6% SDS 30%, glycerol, 0.02% bromophenol blue, 200 mM Tris-HCl (pH 6.8), and 250 mM-mercaptoethanol, at 95° C. for 5 min. The samples were resolved by SDS-PAGE (10% acrylamide), and blotted onto nitrocellulose membrane. Non-specific binding in a Western blot analysis was prevented by immersing the membranes in blocking buffer (5% nonfat dry milk in Tris-buffer saline-Tween 20 (TBS-T)), for 2 h at room temperature. The membranes were then exposed to the indicated antibodies diluted 1:1000 for 1 h at room temperature. AMPK, phospho-AMPK and PARP were obtained from Cell Signaling. Bax, bcl-2 and actin were from Santa Cruz Biotechnology Inc. (Santa Cruz, Calif.). The blots were rinsed in TBS-T and then incubated with horseradish peroxidase-conjugated goat anti-mouse antibodies 1:10,000 for 1 h at room temperature. Antibody-antigen complexes were visualized by detecting enhanced chemiluminescence with X-ray film.
Leptin is a key hormone in the regulation of energy balance and is known to modulate AMPK activity in other systems^15,16. The manner by which leptin may interact with AMPK in modulating brain function was further investigated. Leptin was analyzed functionality under different degrees of diet restriction. […]
(In general: A western blot detects proteins with antibodies after separation by electrophoresis.)

A further assay relates to AKT. Description: AKT phosphorylation in glucose-deprived cardiomyocytes. The format is cell-based. The conditions noted are these: glucose deprivation for 1, 3, 6 h. The method, then:
Cultured cardiomyocytes exposed to glucose deprivation for 1, 3, 6 h were treated with Leptin. Stat-3 phosphorylation (A) and AKT phosphorylation (measure for cell survival and cardioroprotection) were measured by protein analysis.

Entries after “also recorded” stand apart in the source; their conditions may differ.

B1: leptin: Murine leptin provided by A. Gertler; adipokine hormone, full leptin is a 146 amino acid sequence (protein, UniProt P41160 22-167, looked up)
Leptin: VPIQKVQDDTKTLIKTIVTRINDISHTQSVSAKQRVTGLDFIPGLHPILSLSKMDQTLAVYQQVLTSLPSQNVLQIANDLENLRDLLHLLAFSKSCSLPQTSGLQKPESLDGVLEASLYSTEVVALSRLQGSLQDILQQLDVSPEC
Turning to B1, the mortality entry with mice [1] is “decreases mortality”; in the assay with mice [1] (listed as Leptin) it was “decreased mortality”. In addition, in the assay on mice [2], the “cognitive performance in the Morris Water Maze” value is reported as “improvement”. In addition, the neurological score entry in the assay on mice [3] is “reversed impaired neurological score”. The “dopamine concentrations in the hippocampus” value in assay [4] (AL group) is recorded as “down-regulated”; in assay [4] (DR group (40%)), “did not induce any significant reduction”. For the same molecule, the “NE concentration in the hippocampus” value in assay [4] (DR to 40%) is given as “reversed the reduction of NE”. Moreover, the “activated caspase-3 immunoreactivity” value in the assay with activated caspase-3 is “significantly reduced the immunoreactivity”. Further, the “apoptotic cell death (FACS)” value is listed as “reduced apoptotic death” in the assay on Cultured cardiomyocytes [5] and “decreased apoptosis” with Cultured cardiomyocytes [5] (listed as Leptin). Further, the “cell viability (WST)” value in the assay on Cultured cardiomyocytes [6] is listed as “increased significantly the viability; also recorded: induces survival”. Moreover, the “hippocampal AMPK phosphorylation” value with AMPK is listed as “significantly reduced”. For the same molecule, the “cell survival as measured by AKT phosphorylation” value in the assay on AKT is on record as “improved the cell survival”.
